Data from IntAct's records for PubMed 19864458.

B1: MICAL-like protein 1 (Homo sapiens), Q8N3F8 (parent)
chain: MAGPRGALLAWCRRQCEGYRGVEIRDLSSSFRDGLAFCAILHRHRPDLLDFDSLSKDNVFENNRLAFEVAEKELGIPALLDPNDMVSMSVPDCLSIMTYVSQYYNHFCSPGQAGVSPPRKGLAPCSPPSVAPTPVEPEDVAQGEELSSGSLSEQGTGQTPSSTCAACQQHVHLVQRYLADGRLYHRHCFRCRRCSSTLLPGAYENGPEEGTFVCAEHCARLGPGTRSGTRPGPFSQPKQQHQQQLAEDAKDVPGGGPSSSAPAGAEADGPKASPEARPQIPTKPRVPGKLQELASPPAGRPTPAPRKASESTTPAPPTPRPRSSLQQENLVEQAGSSSLVNGRLHELPVPKPRGTPKPSEGTPAPRKDPPWITLVQAEPKKKPAPLPPSSSPGPPSQDSRQVENGGTEEVAQPSPTASLESKPYNPFEEEEEDKEEEAPAAPSLATSPALGHPESTPKSLHPWYGITPTSSPKTKKRPAPRAPSASPLALHASRLSHSEPPSATPSPALSVESLSSESASQTAGAELLEPPAVPKSSSEPAVHAPGTPGNPVSLSTNSSLASSGELVEPRVEQMPQASPGLAPRTRGSSGPQPAKPCSGATPTPLLLVGDRSPVPSPGSSSPQLQVKSSCKENPFNRKPSPAASPATKKATKGSKPVRPPAPGHGFPLIKRKVQADQYIPEEDIHGEMDTIERRLDALEHRGVLLEEKLRGGLNEGREDDMLVDWFKLIHEKHLLVRRESELIYVFKQQNLEQRQADVEYELRCLLNKPEKDWTEEDRAREKVLMQELVTLIEQRNAIINCLDEDRQREEEEDKMLEAMIKKKEFQREAEPEGKKKGKFKTMKMLKLLGNKRDAKSKSPRDKS
partner: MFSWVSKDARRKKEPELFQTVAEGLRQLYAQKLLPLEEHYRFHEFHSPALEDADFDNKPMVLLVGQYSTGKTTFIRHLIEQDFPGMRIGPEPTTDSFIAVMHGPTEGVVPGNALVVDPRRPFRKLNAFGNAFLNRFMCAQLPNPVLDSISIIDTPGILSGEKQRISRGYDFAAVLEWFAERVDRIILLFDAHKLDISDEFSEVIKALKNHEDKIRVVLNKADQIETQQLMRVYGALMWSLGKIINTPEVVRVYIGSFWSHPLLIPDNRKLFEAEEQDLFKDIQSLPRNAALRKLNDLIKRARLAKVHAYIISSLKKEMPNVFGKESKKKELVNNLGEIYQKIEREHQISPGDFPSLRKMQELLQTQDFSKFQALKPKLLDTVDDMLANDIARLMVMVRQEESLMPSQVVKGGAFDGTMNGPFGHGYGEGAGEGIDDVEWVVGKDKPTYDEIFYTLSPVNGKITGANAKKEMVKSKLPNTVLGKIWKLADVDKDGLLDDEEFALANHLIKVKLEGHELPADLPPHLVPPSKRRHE
B2: EH domain-containing protein 1 (Homo sapiens), Q9H4M9 (parent)
chain: B1 partner

Variants of: B1
Details: with ehd1_human EHD1, Q9H4M9

effect of a mutation on the interaction | Variant
disrupting interaction | N425A;F427A

Variants of: B1
Details: with ehd1_human EHD1, Q9H4M9
Remark: another data set of the same source

effect of a mutation on the interaction | Variant
decreasing interaction | N425A;F427A

Variants of: B2
Details: with milk1_human MICALL1, Q8N3F8

effect of a mutation on the interaction | Variant
with no effect | MFSWVSKDARRKKEPELFQTVAEGLRQLYAQKLLPLEEHYRFHEFHSPALEDADFDNKPMVLLVGQYSTGKTTFIRHLIEQDFPGMRIGPEPTTDSFIAVMHGPTEGVVPGNALVVDPRRPFRKLNAFGNAFLNRFMCAQLPNPVLDSISIIDTPGILSGEKQRISRGYDFAAVLEWFAERVDRIILLFDAHKLDISDEFSEVIKALKNHEDKIRVVLNKADQIETQQLMRVYGALMWSLGKIINTPEVVRVYIGSFWSHPLLIPDNRKLFEAEEQDLFKDIQSLPRNAALRKLNDLIKRARLAKVHAYIISSLKKEMPNVFGKESKKKELVNNLGEIYQKIEREHQISPGDFPSLRKMQELLQTQDFSKFQALKPKLLDTVDDMLANDIARLMVMVRQEESLMPSQVVKGGAFDGTMNGPFGHGYGEGAGEGIDDVEWVVGKDKPTYDEIFYTLSPVNGKITGANAKKEMVKSKLPNTVLGEIWKLADVDKDGLLDDEEFALANHLIKVKLEGHELPADLPPHLVPPSKRRHE [K483E]
